The values that follow come from the supplement of paper PMC9112550, “Optimization of the antimicrobial peptide Bac7 by deep mutational scanning” (BMC Biology, 2022).

The subject of this data set is Escherichia coli TOP10. Briefly: shrunken log2 fold change of peptide-encoding DNA abundance (4.5 h post-induction vs induction); higher = less antimicrobial activity (less host growth inhibition). The settings on record: time post-induction: 4.5 h; library: site-saturation at positions 5, 18, 19, 20.
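Note: peptides expressed intracellularly from a pBAD plasmid library in pooled LB shake-flask culture, induced with 0.3% L-arabinose, DNA abundance read by NGS, three biological replicates, DESeq2 with apeglm shrinkage.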

For the sequence RRIRIRPPRLPRPRPRPIDPPRP, the “shrunken log2 fold change” value is -0.142.
With RRIRGRPPRLPRPRPRPVSCPRP the figure was 0.885.
RRIRCRPPRLPRPRPRPVCKPRP: the “shrunken log2 fold change” value is -0.238.
With RRIRMRPPRLPRPRPRPNLRPRP the figure was -0.0219; with RRIRIRPPRLPRPRPRPTHEPRP, -0.0459.
Next, RRIRQRPPRLPRPRPRPQIRPRP: -0.307; RRIRARPPRLPRPRPRPGEEPRP: 0.999.
With RRIRGRPPRLPRPRPRPGGHPRP the figure was 0.779; with RRIRRRPPRLPRPRPRPDQQPRP, 0.0145; with RRIRPRPPRLPRPRPRPNKRPRP, -0.101.
Take RRIRKRPPRLPRPRPRPTYDPRP: the “shrunken log2 fold change” value was -0.0829.
With RRIRRRPPRLPRPRPRPRMMPRP, the “shrunken log2 fold change” value came to 0.351.
With RRIRWRPPRLPRPRPRPECVPRP the figure was 1.26.
Next, RRIRYRPPRLPRPRPRPVGVPRP: -0.0394; RRIRSRPPRLPRPRPRPWVYPRP: -0.14; RRIRRRPPRLPRPRPRPITEPRP: 0.0622.
RRIRERPPRLPRPRPRPNKTPRP: the “shrunken log2 fold change” value stood at 0.0491.
With RRIRSRPPRLPRPRPRPNRFPRP the figure was -0.0804; with RRIRPRPPRLPRPRPRPPPLPRP, 0.699; with RRIRDRPPRLPRPRPRPQARPRP, 1.05.
With RRIRMRPPRLPRPRPRPVCNPRP the figure was -0.314; with RRIRIRPPRLPRPRPRPFRAPRP, -0.332; with RRIRKRPPRLPRPRPRPFVDPRP, -0.0489.
Next, RRIRLRPPRLPRPRPRPSLDPRP: -0.142.
Regarding RRIRERPPRLPRPRPRPYFPPRP, the “shrunken log2 fold change” value is -0.307.
Next, RRIRTRPPRLPRPRPRPDQMPRP: 0.0643; RRIRFRPPRLPRPRPRPNGIPRP: -0.286; RRIRIRPPRLPRPRPRPLCRPRP: -0.289.
With RRIRFRPPRLPRPRPRPMPEPRP the figure was -0.0117.
Turning to RRIRFRPPRLPRPRPRPSQNPRP, the “shrunken log2 fold change” value was -0.22.
On to RRIRCRPPRLPRPRPRPIGEPRP, for which the “shrunken log2 fold change” value is -0.0453.
With RRIRFRPPRLPRPRPRPTPPPRP the figure was 0.797.
Next, RRIRPRPPRLPRPRPRPYGHPRP: 0.0138; RRIRCRPPRLPRPRPRPGGMPRP: 0.215; RRIRIRPPRLPRPRPRPTCYPRP: -0.266.
For the sequence RRIRVRPPRLPRPRPRPWRSPRP, the “shrunken log2 fold change” value is -0.0506.
Next, RRIRFRPPRLPRPRPRPDPSPRP: -0.323.
RRIRNRPPRLPRPRPRPYPEPRP: the “shrunken log2 fold change” value is -1.11.
With RRIRCRPPRLPRPRPRPGGAPRP the figure was 0.462.
Next, RRIRWRPPRLPRPRPRPRGGPRP: 0.984; RRIRHRPPRLPRPRPRPFMFPRP: -0.66.
With RRIRTRPPRLPRPRPRPGFSPRP the figure was -0.016; with RRIRRRPPRLPRPRPRPPKDPRP, 0.472; with RRIRARPPRLPRPRPRPVPVPRP, 0.423.
Consider RRIRMRPPRLPRPRPRPNTPPRP, for which the “shrunken log2 fold change” value is 0.188.
Next, RRIRCRPPRLPRPRPRPFQGPRP: 0.203; RRIRVRPPRLPRPRPRPVAGPRP: 0.0748.
As for RRIRSRPPRLPRPRPRPCLPPRP, the “shrunken log2 fold change” value was -0.133.
Next, RRIRDRPPRLPRPRPRPYPMPRP: -0.348.
With RRIRLRPPRLPRPRPRPIHPPRP the figure was -0.168; with RRIRDRPPRLPRPRPRPKAEPRP, -0.0211; with RRIRHRPPRLPRPRPRPFDRPRP, -0.172.
Turning to RRIRSRPPRLPRPRPRPTKCPRP, the “shrunken log2 fold change” value is -0.258.
With RRIRSRPPRLPRPRPRPIHVPRP the figure was -0.154; with RRIRWRPPRLPRPRPRPLGIPRP, -0.242; with RRIRSRPPRLPRPRPRPWSWPRP, 0.405.
As for RRIRIRPPRLPRPRPRPEQYPRP, the “shrunken log2 fold change” value was -0.0765.
Next, RRIRARPPRLPRPRPRPVMHPRP: 0.191; RRIRNRPPRLPRPRPRPWYMPRP: -0.911; RRIRLRPPRLPRPRPRPNHRPRP: 0.00288.
Next, RRIRNRPPRLPRPRPRPHFCPRP: -0.144; RRIRIRPPRLPRPRPRPCKWPRP: -0.38.
Take RRIRHRPPRLPRPRPRPRFNPRP: the “shrunken log2 fold change” value is -0.316.
Consider RRIRHRPPRLPRPRPRPKEKPRP, for which the “shrunken log2 fold change” value stood at 0.0444.
Next, RRIRVRPPRLPRPRPRPLMIPRP: -0.361.
Next, RRIRPRPPRLPRPRPRPWIAPRP: 0.0544; RRIRGRPPRLPRPRPRPGKKPRP: -0.0917; RRIRARPPRLPRPRPRPKFLPRP: 0.288.
Next, RRIRVRPPRLPRPRPRPWCRPRP: -0.396.
Regarding RRIRQRPPRLPRPRPRPSFNPRP, the “shrunken log2 fold change” value is -0.48.
With RRIRPRPPRLPRPRPRPNCAPRP the figure was 0.208; with RRIRCRPPRLPRPRPRPVKVPRP, -0.181; with RRIRCRPPRLPRPRPRPKSYPRP, -0.443.
For RRIRGRPPRLPRPRPRPGGDPRP, the “shrunken log2 fold change” value came out at 0.937.
RRIRFRPPRLPRPRPRPFYPPRP: the “shrunken log2 fold change” value is -0.824.
Next, RRIRMRPPRLPRPRPRPFANPRP: -0.0062; RRIRMRPPRLPRPRPRPHMCPRP: 0.000241; RRIRCRPPRLPRPRPRPGVFPRP: -0.00263.
Next, RRIRWRPPRLPRPRPRPFDDPRP: -0.121.
For RRIRKRPPRLPRPRPRPSFFPRP, the “shrunken log2 fold change” value was -0.0585.
With RRIRIRPPRLPRPRPRPFVLPRP the figure was -0.113.
Next, RRIRYRPPRLPRPRPRPIFLPRP: -0.246; RRIRTRPPRLPRPRPRPTYQPRP: -0.206; RRIRQRPPRLPRPRPRPLGTPRP: 0.139.
Next, RRIRQRPPRLPRPRPRPQLEPRP: 0.307; RRIRIRPPRLPRPRPRPRKYPRP: -0.561.
Consider RRIRCRPPRLPRPRPRPCAAPRP, for which the “shrunken log2 fold change” value was found to be 0.514.
With RRIRIRPPRLPRPRPRPFVVPRP the figure was -0.235.
Next, RRIRLRPPRLPRPRPRPDHAPRP: 0.0162; RRIRARPPRLPRPRPRPFQGPRP: 0.0242; RRIRARPPRLPRPRPRPDSFPRP: -0.0867.
With RRIRMRPPRLPRPRPRPPYQPRP the figure was 0.0406; with RRIRYRPPRLPRPRPRPNLMPRP, -0.617.
As for RRIRERPPRLPRPRPRPFYSPRP, the “shrunken log2 fold change” value was -0.795.
Next, RRIRRRPPRLPRPRPRPRACPRP: 0.352; RRIRNRPPRLPRPRPRPWCPPRP: -0.752; RRIRPRPPRLPRPRPRPGTSPRP: -0.0162.
Next, RRIRQRPPRLPRPRPRPHDTPRP: -0.152.
With RRIRWRPPRLPRPRPRPMSHPRP the figure was -0.132; with RRIRKRPPRLPRPRPRPGWPPRP, 0.424; with RRIRGRPPRLPRPRPRPIMLPRP, 2.36.
In the case of RRIRLRPPRLPRPRPRPSSTPRP, the “shrunken log2 fold change” value is -0.278.
Next, RRIRQRPPRLPRPRPRPIFGPRP: -0.00652; RRIRVRPPRLPRPRPRPHEPPRP: -0.0412.
Turning to RRIRHRPPRLPRPRPRPAQLPRP, the “shrunken log2 fold change” value was -0.3.
Next, RRIRHRPPRLPRPRPRPVLCPRP: -0.273; RRIRIRPPRLPRPRPRPGMCPRP: -0.238; RRIRKRPPRLPRPRPRPYAEPRP: -0.0528.
With RRIRARPPRLPRPRPRPIVTPRP the figure was 0.155; with RRIRFRPPRLPRPRPRPGALPRP, 0.0277.
Consider RRIRIRPPRLPRPRPRPLTSPRP, for which the “shrunken log2 fold change” value was -0.188.
With RRIRTRPPRLPRPRPRPWVCPRP the figure was -1.58; with RRIRHRPPRLPRPRPRPEPKPRP, -0.0206.
With RRIRHRPPRLPRPRPRPGGVPRP the figure was 0.237.
With RRIRFRPPRLPRPRPRPYILPRP the figure was -1.31; with RRIRQRPPRLPRPRPRPRVVPRP, 0.0149.
For RRIRSRPPRLPRPRPRPSARPRP, the “shrunken log2 fold change” value was found to be 0.299.
As to RRIRERPPRLPRPRPRPPNDPRP, the “shrunken log2 fold change” value was -0.462.
Next, RRIRYRPPRLPRPRPRPHIHPRP: -0.745; RRIRHRPPRLPRPRPRPGHEPRP: -0.133; RRIRSRPPRLPRPRPRPYRGPRP: -0.131.
With RRIRLRPPRLPRPRPRPSMDPRP the figure was -0.327; with RRIRHRPPRLPRPRPRPWASPRP, -0.0831.
With RRIRERPPRLPRPRPRPVMFPRP the figure was 0.934; with RRIRYRPPRLPRPRPRPDEKPRP, -0.102.
